We go through 23 sequences from the DeepSol protein solubility set.

This data set in a line: soluble on expression in E. coli; label from the status in PepcDB or PDB records.
As to “KDINLYKGSIPSGKQQGVDAILISNPNLINILEQAKQKNTAQGSESTTNKIIGYTTTANVNVDNQNIFSVSKLNNEQFQRKIIVNATEETLDQSQTLQSNESIVLPMPGKYKSTDKNKVMITQGPNLIGIHANEKENIETKKFVNW”, the “soluble on expression in E. coli” value is “not soluble”.

Take “MGSDKIHHHHHHMICEFSESVLDGIADALVDRGYICVDNLFEPEVVVRLRDKVFTKADETFKPASIGRGQEQHRNTDIRRDSIRWLEPQCAVDNQYLSLMESLKNGLNRRLFMGLFDYESHYALYRPGAFYKKHVDALKGSQNRILTTVFFMNPEWQPDHGGVLKLYEEDDSLIEELAPLMGRLVIFLSERFPHEVMPTTVDRASIAGWFRVAGSQHGF”: the “soluble on expression in E. coli” value is given as “not soluble”.

Consider “MLNSLEAYNENKFIVFGINDNKEIIGLEKNMFDDAHYQNIIDEYINPRPKIETGQIEYNDEKIGYIAINSNNLETPYELKKELRIKKSKSSLSKGLSFIRKGSTNTPIIQEEREKLILKKTEKNPNNKNLFTALNQKNHAIEEIYYKDNKKSGRKKLDPSNNNGRFTIGELSYEFEMILDVASNEIARIMKTDTIKVARIKNYKDNDIYYELQENLKSPNEVVKKLDTSSRSRDFTLKDLGILINKHGRIAEIFFKEIKSESHGSEENIVEIEWNIPDTKLEHHHHHH”, for which the “soluble on expression in E. coli” value is “not soluble”.

Take “MAKIVILFDFDRTLIDGDSDNWVVTEMGLTEIFHQLRFTLPWNRLMDRMMMELQSQGRSIDDIKSCLKKMPIDSHIIEAIKSAKSSGCDLKIVSDANQFFIEKILEHHDLVDCFSEIYTNPTSLDDNGNLRILPYHSDALPPHSCNLCPSNLCKGLVMDHLRASSSNDQIPRRFIYLGDGGGDFCPTLKLRECDFVMPRTNYPLWKKISDNPLLIKAEVKEWSSAEEQQRILLQLVSTITKEEDS”: the “soluble on expression in E. coli” value is “soluble”.

For “MGHHHHHHSHMDDIFTQCREGNAVAVRLWLDNTENDLNQGDDHGFSPLHWACREGRSAVVEMLIMRGARINVMNRGDDTPLHLAASHGHRDIVQKLLQYKADINAVNEHGNVPLHYACFWGQDQVAEDLVANGALVSICNKYGEMPVDKAKAPLRELLRERAEK”, the “soluble on expression in E. coli” value is “not soluble”.

Turning to “TVIYDKNEKQAGTLYGQKGTYVELDAISDDLENAVISTEDRSFYKNSGINYKRMLLAIVTLGYSGGGSTITQQLAKNAFLTQEQTVKRKAREFFLALELTKKYSKKEILTMYLNNAYFGNGVWGVEDASQKYFGTSASRLTLDEAATLAGMLKGPGIYNPLYSI”, the “soluble on expression in E. coli” value was “not soluble”.

On to “MGHHHHHHSHMASSTSLPAPGSRPKKPLGKMADWFRQTLLKKPKKRPNSPESTSSDASQPTSQDNPLPPSLSSVTSPSLPPTHASDSGSSRWSKDYDVCVCHSEEDLVAAQDLVSYLEGSTASLRCFLQLRDATPGGAIVSELCQALSSSHCRVLLITPGFLQDPWCKYQMLQALTEAPGAEGCTIPLLSGLSRAAYPPELRFMYYVDGRGPDGGFRQVKEAVMRCKLLQEGEGERDSATVSDLL”, for which the “soluble on expression in E. coli” value was “soluble”.

With “MPPRMSVAPERALIDVDREIRIDGFGPYACIDVTAEMRMCGVPWRSRATFLAGADGSLDLGRDSPVSGDYAEPDAMGLVWSMQCQDPPRAVFPPDRTDALTVHITASDGRHEAHATLVQEFLAEGVRHQAVRARAGGMSLSGELYTPP”, the “soluble on expression in E. coli” value is reported as “not soluble”.

Turning to “HRYGDEIDALVEAFNRMRESLAVAYQQQQGMLQAVRESEALLRAIARRIPNGGVWVVDTDGRYIMFEGSLVESLGLSGQEALGRMPGDLFGEPLADRLVGCYRLALAGGTLSEEIEYRERVLWIQFAPLEDEHGAVMAAVALGID”, the “soluble on expression in E. coli” value is on record as “not soluble”.

Regarding “MGSDKIHHHHHHMKKLVATAPRVAELVEYHDREVVEDEVKIKVQFASPKHGTEVVDFRGISPFIDEEFSPEWNLFVSRETNSARGIVFGEFQLGNMVVGEVVECGSKVTEYALGDIVCSYGPIMETVIVKAVDNYKLRKLPKGANWKNAVCYDPAQFAMSGVRDAHVRAGDYVVVVGLGAIGQIAIQLAKKAGASVVIGVDPLSHRREIAEKHGADATFDPITTDVGLEVKRLTGKLGADSIIETSGNAAALQAALRGIAYGGTISYVAFAKPFPEGFNLGREAHFNNAKIVFSRAASEPNPDYPRWDRKRIEETCWELLMNGYLDCTDIIDPVVPFADSAESYMKYVDQQPDLSIKMGITL”, the “soluble on expression in E. coli” value is listed as “not soluble”.

“MGSDKIHHHHHHMNTRNDNSKILEIYKMKLFGELVKAVWNDDIEDIENLPNKILNEDLKDNLNNYFSGKFDKDTMVNLIRVTMGLDVTEDTDKNLKESLHEAVNLDEVKRPIISVISDACKYCDENNKEDESCKIRSKHINCNEEDVCSACGDCVSRCKLGAISDKIEFIPMIKLLKDIKSPVYAIVAPAFVGQFGKDVSPGKLRTALKKIGFEDMIEVALAADMLTAKEAYDYYEHMKKDEEGCFITSCCCPIWVSLIQNSFPQILENVSPSVSPMIACGRAVKILNPDAKVVFIGPCMAKKKEAMLEDIKDAVDFVLTFKELQEIFDALELNPAIMDESNRVEASLSGRVYARTGGVSKAVKLSVRRIDKNIKFEEKAFEGTKECMDGLKKVLNKEIEATFIEGMGCVGGCVGGPKRILSVEEGTKNVDEYSESTNMETPFDNLNVLQFLTSLGIKRVESLGEKEEEKVKKIFSRDIKSNKKENKYKK”: the “soluble on expression in E. coli” value is “not soluble”.

With “MGSDKIHHHHHHMKLNLAVFAYHLADYAPRLYDSEVHGLGIGDVRFIDRQETFLSESVYIGAWDKLQALIRPPSYVVCIGRDETTDRWLEKHGVKALILDSEVELNEVFERLQDIFQHYNRLESELLEAVLCKEPLNVLLNICAKFFANPTFITDAALCLVATCDNFAHPETDRAWQETIESGRSSSELLLLMKRKKLTNLLNTSRKAEFVNVGENYSKIICANYFDQEVRIATFTVSEAYTPLSPLQAGLVDHVAKLLTAEVRKQHKASSRYLFAIRSNISNLLHGQKIDGAILKTNFAHIGWTDQEDYRLLKIPLTAAELADGTAGHNRKIYESIFPHYVSLDLNEVLILVIRCARDTEADKRRFAELKKHLKNENAACGVSKTFHDFDMLGEEYKLANAALEIGSWKYPKEALYFYEDMMLEHLFSEGSRIFNLRSLCHDSVLRIAEHDQQNNSSLLQTLKVYLLQEKSLLAASQELHIHRNTLVYRLGKIEQISGLDLNSPLIRLQGILSCLILEYLNGLEEKAPD”, the “soluble on expression in E. coli” value was “not soluble”.

Consider “SMTYIPPGESLRDLIEQSQSSGSGSGLPLLVQRTIAKQIQMVKQIGKGRYGEVWMGKWRGEKVAVKVFFTTEEASWFRETEIYQTVLMRHENILGFIAADIKGTGSWTQLYLITDYHENGSLYDYLKSTTLDAKSMLKLAYSSVSGLCHLHTEIFSTQGKPAIAHRDLKSKNILVKKNGTCCIADLGLAVKFISDTNEVDIPPNTRVGTKRYMPPEVLDESLNRNHFQSYIMADMYSFGLILWEVARRCVSGGIVEEYQLPYHDLVPSDPSYEDMREIVCIKKLRPSFPNRWSSDECLRQMGKLMTECWAHNPASRLTALRVKKTLAKMSESQDIKL”, for which the “soluble on expression in E. coli” value is “soluble”.

Turning to “MPDKKTLWMLNELEGFEKPKIKLEQYATSSELAVSMMEMIDETIGFEGKKLIDIGCGCGMLMTTAATMYELETVLGVDIDDEALKICSRNLETAEVQDRCELLQADILDPESDLPRGTFDVAVINPPFGTKNNAGIDMQFVQIGLQMVRPGGSVFSLHKSSTRDYILKNAKKWDGVGAECCAEMRWQLPATYKFHKQKAVDIAVDLIHFKKLDS”, the “soluble on expression in E. coli” value is recorded as “soluble”.

“MSLPPKFWIIIIVKKIDQQSLENAYRLFESGDIHQIEIGSTKGLQQIHHYLFNGLYEFAGKIREQNISKGHFRFANALYLKEALGKIEQMPEDTFENIINKYVEMNIAHPFLEGNGRSTRIWLDLVLKKHLGKVVNWQNVDKTQYLQAMERSPINDLEIRFLLQANLTDDVNNREIIFKGIEQSYYYEGYEKEEGGSHHHHHH”: the “soluble on expression in E. coli” value is “soluble”.

“MHNISAKKFLGYLKNKCLEFGVKVIEGNPAYTSIKCPNCGSRLSQLYKLADERALPSRLMYCFDCGFYADRDTVAVFNLIKRFTGLYPFSPKSNEPIAEGTVFPDEAMGLEHHHHHH”: the “soluble on expression in E. coli” value is given as “soluble”.

On to “HETLTSPPLREGRYIMAVTGCGPVEGVKEDGAFAFRGIPYAKPPVDRLRWKPAELIDDINMCWNDTLQTHNSSVVCTQRLGNGTTVGDEDCLYLDVVTPHVRYNNPLPVVVLIGAESLAGPSPGILRPSARYSRSHDVIFVRPNFRLGVFGFLALDALTKEAHPPTSGNYALTDIIAVLNWIKLNIVHFGGDPQSVTLLGHRAGATLVTLLVNSQKVKGLYTRAWASSGSAILPGKPLSESGKQNEQLMATLECADIQCLREASSERLWAATPDTWLHFPVDLPQPQEANASGSRHEWLVLDGDVVFEHPSDTWKREQANDKPVLVMGATAHEAHTEKLRELHANWTREEVRAYLENSQIGALGLTDEVIEKYNASSYASLVSIISDIRSVCPLLTNARQQPSVPFYVVTQGEGPDQLATVDADVQAILGRYEPHTVEQRRFVSAMQQLFYYYVSHGTVQSFVQNRRVINVGQDAQPEEDYLPCNYWISKDIVPRYARVD”, for which the “soluble on expression in E. coli” value is reported as “soluble”.

“SFVPSQKTYQGNYGFHLGFLQSGTAKSVMCTYSPPLNKLFCQLAKTCPVQLWVSATPPAGSRVRAMAIYKKSQHMTEVVRRCPHHERCSDGDGLAPPQHLIRVEGNLYPEYLEDRQTFRHSVVVPYEPPEAGSEYTTIHYKYMCNSSCMGGMNRRPILTIITLEDSSGNLLGRDSFEVRVCACPGRDRRTEEENFRKKEVL”: the “soluble on expression in E. coli” value was “soluble”.

In the case of “MLARSDRLSVVAVVEGTRKQPDPATFIGKGKAEEISQILAQTHAAMVIFNHELSPVQQRNLSMVLACRIIDRTSLILEHHHHHH”, the “soluble on expression in E. coli” value is on record as “not soluble”.

Take “MGSDKIHHHHHHMTQDAQCTRRTDWIPLAREVLDIEIEGIAAMRDRLNGGFVDALTLMARCTGRVVITGLGKSGLVGRKLAATLSSTGTPAFFLHPVEGAHGDMGMLRSDDVIIAISNSGETDELNAILPALRSLGASLIAMTGGLESTLAKSADVVLDTGVRREACPLNLAPTASTTAVLAMGDALAVCLIHWKSFTENDFLRFHPGGSLGHRLSMRVESLMHTENLPVVRETVRTGEALRVLDEGRLGTVLVTDGQGRLSGILTDGDVRRMVCREAGVETASPVANVMVRSPLTARKEFSVAQLIDMMEERAITVLPITGDDGLLLGVVHLHDLLGKGGVKFSR”: the “soluble on expression in E. coli” value is “not soluble”.

Regarding “MTKAELRRRARAAWRRLDLKALSRAVGAALLPWLRERGFRHILLYHPLPHELNLLPLMEAYPARYYLPKVAGKGLTVHPFGPLAPGPFGLLEPTTPPEDPRVLDLVVVPGLAFDREGYRLGHGQGFYDRFLKEVRAATVGVVPQALLFPALPRDPWDVPVDHLATEAGVEAVKRPAPGPGGLLD”, the “soluble on expression in E. coli” value is recorded as “soluble”.

For “SKTNPRLSSLIADLKSAARSSGGAVWGDVAERLEKPRRTHAEVNLGRIERYAQEDETVVVPGKVLGSGVLQKDVTVAAVDFSGTAETKIDQVGEAVSLEQAIENNPEGSHVRVIR”, the “soluble on expression in E. coli” value is listed as “soluble”.

For the sequence “MFIDTSELCDLYAEQVDVVEPIFSSFGGVSNFYGKVTTVKCFESNGLIAEVLEENGEGRVLVIDGGGAVRRGLIDAELAQLAVDNGWEGIIVYGAVRQIQQLENLDIGIHALAPIPVSADESSAGESDIPVNFGGVTFFPEDYIYADLTGIILSQEPLDLEDLEHHHHHH”, the “soluble on expression in E. coli” value is “not soluble”.
